Measurements: patent US10660951

Legend:
[1] = target: envelope glycoprotein of HIV-1 HXB2 on pseudotyped virus (HIV-1 HXB2) (UniProt P04578); assay: cell-based or functional assay
[2] = target: envelope of HIV-1 isolate CNE5 on pseudotyped virus (HIV-1 CNE5); assay: cell-based or functional assay

In the case of b12 (antibody), the ND50, neutralization of pseudotyped virus (luciferase) [1] is reported as 0.119 µg/mL and the ND50, neutralization of pseudotyped virus (luciferase) [2] is reported as 23.1 µg/mL.
